Experimental findings from publication PMC7337323 (Nature structural & molecular biology, 2020) are described below.

B1: wild-type H. neapolitanus Rubisco (CbbL8S8) (complex, Halothiobacillus neapolitanus)
chain 1: MAVKKYSAGVKEYRQTYWMPEYTPLDSDILACFKITPQPGVDREEAAAAVAAESSTGTWTTVWTDLLTDMDYYKGRAYRIEDVPGDDAAFYAFIAYPIDLFEEGSVVNVFTSLVGNVFGFKAVRGLRLEDVRFPLAYVKTCGGPPHGIQVERDKMNKYGRPLLGCTIKPKLGLSAKNYGRAVYECLRGGLDFTKDDENINSQPFMRWRDRFLFVQDATETAEAQTGERKGHYLNVTAPTPEEMYKRAEFAKEIGAPIIMHDYITGGFTANTGLAKWCQDNGVLLHIHRAMHAVIDRNPNHGIHFRVLTKILRLSGGDHLHTGTVVGKLEGDRASTLGWIDLLRESFIPEDRSRGIFFDQDWGSMPGVFAVASGGIHVWHMPALVNIFGDDSVLQFGGGTLGHPWGNAAGAAANRVALEACVEARNQGRDIEKEGKEILTAAAQHSPELKIAMETWKEIKFEFDTVDKLDTQNR
chain 2: MAEMQDYKQSLKYETFSYLPPMNAERIRAQIKYAIAQGWSPGIEHVEVKNSMNQYWYMWKLPFFGEQNVDNVLAEIEACRSAYPTHQVKLVAYDNYAQSLGLAFVVYRGN

Data set [1] has as its target N*-polyPro (N* consensus peptide on a polyproline II helix). Put plainly: BLI. Background: Biolayer interferometry detects binding as a change in optical thickness at a sensor tip.
The target in data set [2] is T1, full-length CsoS2 (H. neapolitanus) (Halothiobacillus neapolitanus, UniProt O85041 1-869).
T1 sequence (looked up): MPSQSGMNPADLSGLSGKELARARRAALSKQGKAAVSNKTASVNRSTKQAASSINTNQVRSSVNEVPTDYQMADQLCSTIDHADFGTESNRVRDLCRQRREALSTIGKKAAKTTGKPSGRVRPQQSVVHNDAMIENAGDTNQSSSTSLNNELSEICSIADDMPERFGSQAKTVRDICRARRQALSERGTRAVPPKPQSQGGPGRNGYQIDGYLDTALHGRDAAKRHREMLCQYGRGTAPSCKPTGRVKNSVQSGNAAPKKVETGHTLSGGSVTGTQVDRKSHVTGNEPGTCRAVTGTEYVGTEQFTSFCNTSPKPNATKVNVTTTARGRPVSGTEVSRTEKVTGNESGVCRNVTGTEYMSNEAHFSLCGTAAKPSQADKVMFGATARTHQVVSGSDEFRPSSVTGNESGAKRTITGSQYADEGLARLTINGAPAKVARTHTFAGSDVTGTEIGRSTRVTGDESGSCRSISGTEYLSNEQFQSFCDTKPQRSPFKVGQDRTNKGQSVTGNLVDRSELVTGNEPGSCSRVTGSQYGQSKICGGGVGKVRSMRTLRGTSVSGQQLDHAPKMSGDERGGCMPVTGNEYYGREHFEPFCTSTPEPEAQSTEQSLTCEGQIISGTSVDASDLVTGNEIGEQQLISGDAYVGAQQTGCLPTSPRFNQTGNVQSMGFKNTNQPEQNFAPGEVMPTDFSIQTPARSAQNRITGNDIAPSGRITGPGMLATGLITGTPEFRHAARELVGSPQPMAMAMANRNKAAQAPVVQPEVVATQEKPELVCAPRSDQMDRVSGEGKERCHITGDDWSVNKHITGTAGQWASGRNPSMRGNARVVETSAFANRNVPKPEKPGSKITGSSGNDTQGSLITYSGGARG
Put plainly: native gel or EMSA.

The data set “crystal structure” deals with the molecule itself. Briefly: crystal structure.
The target in data set [3] is B1. Briefly: MST.

Turning to “wild-type H. neapolitanus Rubisco (CbbL8S8) (from UniProt O85040 1-473; P45686 1-110) (complex)”, the Kd (in general, a measure of binding affinity in units of concentration) in data set [1] worked out at 0.1 µM.

Regarding B1, the binding result in data set [2] is reported as “binds”.

B2: CbbL (Rubisco large subunit, H. neapolitanus) (natural protein, Halothiobacillus neapolitanus)
chain: MAVKKYSAGVKEYRQTYWMPEYTPLDSDILACFKITPQPGVDREEAAAAVAAESSTGTWTTVWTDLLTDMDYYKGRAYRIEDVPGDDAAFYAFIAYPIDLFEEGSVVNVFTSLVGNVFGFKAVRGLRLEDVRFPLAYVKTCGGPPHGIQVERDKMNKYGRPLLGCTIKPKLGLSAKNYGRAVYECLRGGLDFTKDDENINSQPFMRWRDRFLFVQDATETAEAQTGERKGHYLNVTAPTPEEMYKRAEFAKEIGAPIIMHDYITGGFTANTGLAKWCQDNGVLLHIHRAMHAVIDRNPNHGIHFRVLTKILRLSGGDHLHTGTVVGKLEGDRASTLGWIDLLRESFIPEDRSRGIFFDQDWGSMPGVFAVASGGIHVWHMPALVNIFGDDSVLQFGGGTLGHPWGNAAGAAANRVALEACVEARNQGRDIEKEGKEILTAAAQHSPELKIAMETWKEIKFEFDTVDKLDTQNR
On to B2, for which, in “crystal structure”, the binding result is recorded as “binds”.

B3: [N1]-GFP (single CsoS2 N-peptide repeat N1 fused to GFP) (domain or fragment)
chain: PSQSGMNPADLSGLSGKELARARRAALSKQGKAAVSNKTASVNRSTKQAASSINTNQVRSSVNEVPTDYQMADQLCSTIDHADFGTESNRV
modifications: CsoS2 part of Supplementary Table 1 construct; His tag, TEV site, linker, sfGFP and StrepII left out
B3 yielded a Kd in data set [3] greater than 1000 µM.
